The source of these data is IntAct's records for PubMed 35512704.

To fix the notation:
B1: Speckle-type POZ protein (Homo sapiens), O43791 (parent)
chain: MSRVPSPPPPAEMSSGPVAESWCYTQIKVVKFSYMWTINNFSFCREEMGEVIKSSTFSSGANDKLKWCLRVNPKGLDEESKDYLSLYLLLVSCPKSEVRAKFKFSILNAKGEETKAMESQRAYRFVQGKDWGFKKFIRRDFLLDEANGLLPDDKLTLFCEVSVVQDSVNISGQNTMNMVKVPECRLADELGGLWENSRFTDCCLCVAGQEFQAHKAILAARSPVFSAMFEHEMEESKKNRVEINDVEPEVFKEMMCFIYTGKAPNLDKMADDLLAAADKYALERLKVMCEDALCSNLSVENAAEILILADLHSADQLKTQAVDFINYHASDVLETSGWKSMVVSHPHLVAEAYRSLASAQCPFLGPPRKRLKQS
partner: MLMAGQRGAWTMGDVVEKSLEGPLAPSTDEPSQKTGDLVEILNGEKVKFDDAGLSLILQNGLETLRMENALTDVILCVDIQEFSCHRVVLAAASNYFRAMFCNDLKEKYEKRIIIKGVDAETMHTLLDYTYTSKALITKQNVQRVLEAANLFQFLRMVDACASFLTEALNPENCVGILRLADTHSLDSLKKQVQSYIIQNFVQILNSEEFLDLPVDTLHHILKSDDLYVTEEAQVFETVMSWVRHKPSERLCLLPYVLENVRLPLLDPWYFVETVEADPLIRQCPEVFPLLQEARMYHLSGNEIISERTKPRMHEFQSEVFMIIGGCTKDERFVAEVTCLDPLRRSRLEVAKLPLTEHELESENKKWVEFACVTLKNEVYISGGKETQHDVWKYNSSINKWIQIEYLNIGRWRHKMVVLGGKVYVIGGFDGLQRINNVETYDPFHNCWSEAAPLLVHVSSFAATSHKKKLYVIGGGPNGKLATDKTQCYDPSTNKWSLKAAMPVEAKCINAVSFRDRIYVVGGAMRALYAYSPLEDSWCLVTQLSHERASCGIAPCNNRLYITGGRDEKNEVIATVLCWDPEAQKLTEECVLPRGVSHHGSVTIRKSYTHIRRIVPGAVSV
B2: Speckle-type POZ protein (Homo sapiens), O43791 (parent)
chain: B1 chain
partner: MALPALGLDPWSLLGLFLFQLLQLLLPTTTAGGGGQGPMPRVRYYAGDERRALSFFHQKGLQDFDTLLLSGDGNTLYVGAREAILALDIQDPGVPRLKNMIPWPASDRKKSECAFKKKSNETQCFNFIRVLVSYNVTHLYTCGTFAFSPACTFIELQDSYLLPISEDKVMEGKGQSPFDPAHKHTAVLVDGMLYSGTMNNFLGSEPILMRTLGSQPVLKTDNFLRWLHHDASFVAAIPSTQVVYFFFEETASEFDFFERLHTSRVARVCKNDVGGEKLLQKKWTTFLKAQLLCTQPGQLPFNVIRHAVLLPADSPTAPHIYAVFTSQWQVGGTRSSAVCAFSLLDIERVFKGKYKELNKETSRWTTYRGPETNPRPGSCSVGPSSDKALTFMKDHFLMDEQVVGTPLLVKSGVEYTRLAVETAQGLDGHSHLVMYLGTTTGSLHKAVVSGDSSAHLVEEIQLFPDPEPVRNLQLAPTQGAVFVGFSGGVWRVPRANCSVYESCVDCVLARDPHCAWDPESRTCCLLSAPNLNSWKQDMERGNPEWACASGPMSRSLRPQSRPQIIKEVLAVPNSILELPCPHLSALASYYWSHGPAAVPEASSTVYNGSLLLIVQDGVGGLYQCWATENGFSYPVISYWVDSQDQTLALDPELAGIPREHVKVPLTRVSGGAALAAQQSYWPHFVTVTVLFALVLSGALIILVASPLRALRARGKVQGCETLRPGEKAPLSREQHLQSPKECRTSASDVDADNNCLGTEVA
B3: Speckle-type POZ protein (Homo sapiens), O43791 (parent)
chain: B1 chain
partner: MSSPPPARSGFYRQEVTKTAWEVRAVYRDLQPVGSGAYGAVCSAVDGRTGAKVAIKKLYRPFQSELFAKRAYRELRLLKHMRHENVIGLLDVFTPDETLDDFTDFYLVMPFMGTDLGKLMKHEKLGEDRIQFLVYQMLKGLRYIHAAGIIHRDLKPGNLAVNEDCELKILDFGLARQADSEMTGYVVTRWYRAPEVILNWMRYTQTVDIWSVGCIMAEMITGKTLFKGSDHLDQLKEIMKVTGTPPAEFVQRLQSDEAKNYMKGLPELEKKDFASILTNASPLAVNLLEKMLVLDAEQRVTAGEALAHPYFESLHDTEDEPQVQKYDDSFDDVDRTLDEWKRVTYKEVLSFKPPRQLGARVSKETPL
B4: Speckle-type POZ protein (Homo sapiens), O43791 (parent)
chain: B1 chain
partner: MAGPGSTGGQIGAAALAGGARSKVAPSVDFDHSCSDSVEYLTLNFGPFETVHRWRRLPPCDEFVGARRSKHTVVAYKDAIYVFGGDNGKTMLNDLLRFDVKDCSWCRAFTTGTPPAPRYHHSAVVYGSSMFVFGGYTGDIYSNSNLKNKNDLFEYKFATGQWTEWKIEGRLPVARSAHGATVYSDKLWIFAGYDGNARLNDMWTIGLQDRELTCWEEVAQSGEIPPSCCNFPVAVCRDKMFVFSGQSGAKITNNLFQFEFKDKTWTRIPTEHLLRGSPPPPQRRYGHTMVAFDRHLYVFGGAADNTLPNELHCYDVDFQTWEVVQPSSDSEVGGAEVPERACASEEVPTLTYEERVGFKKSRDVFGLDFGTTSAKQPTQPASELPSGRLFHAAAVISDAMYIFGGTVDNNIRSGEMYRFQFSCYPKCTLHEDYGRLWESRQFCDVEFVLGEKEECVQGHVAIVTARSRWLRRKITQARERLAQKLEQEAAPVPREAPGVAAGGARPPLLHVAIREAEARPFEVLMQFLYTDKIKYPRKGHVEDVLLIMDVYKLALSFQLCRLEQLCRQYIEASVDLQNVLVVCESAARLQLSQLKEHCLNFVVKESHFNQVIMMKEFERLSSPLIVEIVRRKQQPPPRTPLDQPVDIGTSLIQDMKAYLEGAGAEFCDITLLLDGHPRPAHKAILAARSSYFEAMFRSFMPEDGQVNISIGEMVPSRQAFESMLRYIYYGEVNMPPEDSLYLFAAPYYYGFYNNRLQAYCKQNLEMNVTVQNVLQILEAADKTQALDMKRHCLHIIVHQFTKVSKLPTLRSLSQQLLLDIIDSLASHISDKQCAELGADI
B5: Speckle-type POZ protein (Homo sapiens), O43791 (parent)
chain: B1 chain
partner: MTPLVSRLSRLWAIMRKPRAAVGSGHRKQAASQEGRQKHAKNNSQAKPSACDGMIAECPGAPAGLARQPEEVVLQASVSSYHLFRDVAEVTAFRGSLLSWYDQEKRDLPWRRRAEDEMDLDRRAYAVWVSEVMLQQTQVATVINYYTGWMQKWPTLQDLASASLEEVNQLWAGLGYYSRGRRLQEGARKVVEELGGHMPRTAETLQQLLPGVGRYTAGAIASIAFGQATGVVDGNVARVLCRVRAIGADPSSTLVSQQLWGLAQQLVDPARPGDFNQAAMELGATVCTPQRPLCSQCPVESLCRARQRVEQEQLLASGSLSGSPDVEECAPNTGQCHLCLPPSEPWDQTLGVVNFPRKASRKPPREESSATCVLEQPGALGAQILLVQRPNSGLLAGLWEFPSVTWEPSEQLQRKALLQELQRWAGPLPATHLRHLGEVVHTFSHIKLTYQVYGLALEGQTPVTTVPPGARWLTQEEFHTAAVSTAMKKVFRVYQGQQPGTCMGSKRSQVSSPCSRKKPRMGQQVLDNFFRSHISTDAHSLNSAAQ

Variants of B1 are the subject of one assay. Particulars: with klhl6_human KLHL6, Q8WZ60.
For the variant F133L, the “effect of a mutation on the interaction” value is “with no effect”.

Variants of B1 are the subject of another assay. The settings on record: with klhl6_human KLHL6, Q8WZ60. The source holds these as a separate data set.
Regarding F102C, the “effect of a mutation on the interaction” value is on record as “with no effect”.

The next assay covers variants of B2. The settings on record: with sem4a_human SEMA4A.
For the variant F102C, the “effect of a mutation on the interaction” value is “with no effect”.

The variants in the next assay derive from B3. The settings on record: with mk12_human MAPK12, P53778.
F133V: the “effect of a mutation on the interaction” value is on record as “with no effect”.

In the next assay the parent is B3. Particulars: with mk12_human MAPK12, P53778. The source holds these as a separate data set.
Consider F133L, for which the “effect of a mutation on the interaction” value is “with no effect”.

The next assay covers variants of B3. The settings on record: with mk12_human MAPK12, P53778. The source holds these as a separate data set.
Regarding F102C, the “effect of a mutation on the interaction” value was “with no effect”.

The variants in the next assay derive from B3. The settings on record: with mk12_human MAPK12, P53778. The source holds these as a separate data set.
For the variant Y87C, the “effect of a mutation on the interaction” value is recorded as “with no effect”.

Variants of B4 are the subject of another assay. Particulars: with lztr1_human LZTR1, Q8N653.
On to Y87C, for which the “effect of a mutation on the interaction” value is “with no effect”.

In a further assay the parent is B4. The settings on record: with lztr1_human LZTR1, Q8N653. The source holds these as a separate data set.
Take F133L: the “effect of a mutation on the interaction” value is listed as “with no effect”.

In another assay the parent is B4. The settings on record: with lztr1_human LZTR1, Q8N653. This is another data set of the same source.
Consider F133V, for which the “effect of a mutation on the interaction” value is “with no effect”.

A further assay covers variants of B4. The settings on record: with lztr1_human LZTR1, Q8N653. The source holds these as a separate data set.
For the variant F102C, the “effect of a mutation on the interaction” value is “with no effect”.

Another assay covers variants of B5. Particulars: with mutyh_human MUTYH.
In the case of F102C, the “effect of a mutation on the interaction” value is listed as “with no effect”.
